Experiment: yeast display, Sf9 membrane polyspecificity reagent, FACS + sequencing; frameworks hold sequencing errors
In short: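 Galactose-induced (36–48 hours) yeast carrying a synthetic nanobody display library were exposed to 10% biotinylated, detergent-solubilized Sf9 membrane reagent at 4 °C for 1 hour. FACS followed streptavidin microbead enrichment, using low and high (top ~1%) gates for expression (anti-HA) and reagent binding (streptavidin). Colony PCR, MiSeq 2 × 250 sequencing and CDR-length filtering followed. Labels for polyreactivity reflect the gate of origin.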

Sequence	polyreactivity (PSR sort gate)
QVQLVESGGGLVQAGGSLRLSCAASGSTFGRYAMGWYRQAPGKERELFAAISWSGGSTYYADSVKGRFTISRDNAKNTVYLQMNSLKPEDTAVYYCNKAGIYIYGSYYWGQGTQVTVSS	high polyreactivity
QVQLVESGGGLVQAGGSLRLSCAASGSTFGRYAMGWYRQAPGKERELVAAITTSGGRTRYADSVKGRFTISRDNAKNPVYLQMNSLKPEDTAVYYCAASGAQGPDYDYWGQGTQVTVSS	low polyreactivity
QVQLVESGGGLVQAGGSLRLSCAASGSTFGRYAMGWYRQAPGKERELVATIDGSDGSTFYADSVKGRFTISRDNAKNTVYLQMNSLKPEDTAVYYCAAAWYDGYYYLVYYWGQGTQVTVSS	low polyreactivity
QVQLVESGGGLVQAGGSLRLSCAASGSTFGRYAMGWYRQAPGKESELVAAISSSGGRTYYADSVKGRFTISRDNAKNTVYLQMNSLKPEDTAVYYCAAPGAQGLGLRGAGLDYWGQGTQVTVSW	high polyreactivity
QVQLVESGGGLVQAGGSLRLSCAASGSTFGRYAMGWYRQATGKEMELVAAITRSGGRTYYADSVKGRFTISRDNAKNNVYLQMNSLKPEDTAVYYCAAVGNLYYTSHWQYDYWGQGTQVTVSS	high polyreactivity
QVQLVESGGGLVQAGGSLRLSCAASGSTFGRYTMGWYRQAPRKERELVAAITSGGGSTYYADSVKGRFTISRDNAKNTVYLQMNSLKPEDTAVYYCAARSLVQDHAYGYNYWGQGTQVTVSS	low polyreactivity
QVQLVESGGGLVQAGGSLRLSCAASGSTFGRYVMGWYRQAPGKERELVAAISKNAGSTYYADSVKGRFTISRDNAKNTVYLHMNSLKPEDTAVYYCAADWRTKGYDSLGQGTQVTVSS	high polyreactivity
QVQLVESGGGLVQAGGSLRLSCAASGSTFGRYVMGWYRQAPGKERELVAAISKNAGSTYYADSVKGRFTISRDNAKNTVYLQMNRLKPEDTAVYYCAADWRTKGYDSLGQGTQVTVSS	high polyreactivity
QVQLVESGGGLVQAGGSLRLSCAASGSTFGSNAMGWYRQAPGKERELVAAITNGGSTNYADSVKGRFTISRDNAKNTVYLQMHSLKPEDTAVYYCNADPQQSKLWTYFFGFPGYYWGQGTQVTVSS	low polyreactivity
QVQLVESGGGLVQAGGSLRLSCAASGSTFGSNAMGWYRQAPGKERELVAAITRRGGSTYYADSVKGRFTISRDKAKNTVYLQMNSLKPEDTAVYYCAAQIHPRRDYSAFDYWGQGTQVTVSS	low polyreactivity
QVQLVESGGGLVQAGGSLRLSCAASGSTFGSYAMGWYRQAPGKVRELVASIRSSGTSTYYADSVKGRFTISRDNAKNTVYLQMNSLKPEDTAVYYCAKRYFTWRSTYNYWGQGTQVTVSS	high polyreactivity
QVQLVESGGGLVQAGGSLRLSCAASGSTFGSYAMGWYRQAPGTERELVAAISRAGSTYADSVKGRFTISRDNAKNTVYLQMHSLKPEDTAVYYCANRDNALYYGYDYWGQGTQVTVSS	low polyreactivity
QVQLVESGGGLVQAGGSLRLSCAASGSTFGSYTMGWYRQAPGKERELVAAINWSGGNTYYADSVKGRFTISRDNAKNTVYLQINSLKPEDTAVYYCAAAFYIYGVEGDYWGQGTQVTVSS	low polyreactivity
QVQLVESGGGLVQAGGSLRLSCAASGSTFGTYAMGWSRQAPGKERELVAAITSGGSTDYADSVKGRFTISRDNAKNTVYLQMNSLKPEDTAVYYCNATWELLSYYYLFWGYDYWGQGTQVTVSS	low polyreactivity
QVQLVESGGGLVQAGGSLRLSCAASGSTFGTYAMGWYRQAPGKERELVAAISRRGGSTYYADSVKGRFTISRDNAKNTVYLQMNSLKTEDTAVYYCAARKFHPDDNYWGQGTQVTVSS	high polyreactivity
QVQLVESGGGLVQAGGSLRLSCAASGSTFGTYAMGWYRQAPGKERELVATISIGGITYYADSVKGRFTISRDNAKNTVYLQMNSLKPEDTAVYYCAKDVTDPTSRSDPSGDDYWGQGTQVTVSS	low polyreactivity
QVQLVESGGGLVQAGGSLRLSCAASGSTFGTYAMGWYRQEPGKERELVAAIRWSGVSTYYADSVKGRFTISRDNAKNTVYLQMNSLKPEDTAVYYCAVALWVRGTYIYEYWGQGTQVTVSS	high polyreactivity
QVQLVESGGGLVQAGGSLRLSCAASGSTFGTYARGWYRQAPGKERELVAAISWSGGSTYYADSVKGRFTISRDNAKNTVYLQMNSLKPEDTAVYYCNAKTSIGTWVGDDYWGQGTQVTVSS	low polyreactivity
QVQLVESGGGLVQAGGSLRLSCAASGSTFGTYVMGWYRQAPGKERELVAAISKRGGRTYYADSVKGRFTISRDNAKNTVYLQMNSLKPEDTAVYYCNAVYLYSGSSARYYWGQGTQVTVSS	high polyreactivity
QVQLVESGGGLVQAGGSLRLSCAASGSTFGVYAMGWSRQAPGKERELDAAIRWSDGTTYYADSVKGRFTNSRDNAKNPVYLQMNSLKPEDTAVYYCAAVGYKRGTGRYGYWGQGTQVTVSS	high polyreactivity
QVQLVESGGGLVQAGGSLRLSCAASGSTFGVYAMVWYRQAPGKERELVAAINYSGRTYYADSVKGRFTISRDNAKNTVYLQMNSLKPEDTAVYYCAARIIVDDVGTKYYYWGQGTQVTVSS	high polyreactivity
QVQLVESGGGLVQAGGSLRLSCAASGSTFGVYTMGWYRQAPGKERELVAAITKSGGSTYYADSVKGRFTISRDNAKNTVYLQMNSLKPEDTAVYYCNTDYGRYLYYRYGYWGQGTQVTVSS	low polyreactivity

Sequence	polyreactivity (PSR sort gate)
QVQLVESGGGLVQAGGSLRLSCAASGSTFGWNAMGWYRQAPGKERELVAAISRSGGRTYYADSVKGRFTISRDNAKNTVYLQMNSLKPEDTAVYYCAADRSTTGGLRGYWGQGTQVTVSS	high polyreactivity
QVQLVESGGGLVQAGGSLRLSCAASGSTFGWNAMGWYRQAPGKERELVAAISSRGGSTSYADSVKGRFTISRDNAKNSVYLQMNSLKPEYTAVYYCAAPYVYYRYGYWGLGTQVTVSS	low polyreactivity
QVQLVESGGGLVQAGGSLRLSCAASGSTFGWNAMGWYRQAPGKERELVAAISSSGGITYYADSVKGRFTISRDNAKNTVYLQMNSLKPEDTAVYYCAAERDDDWVNYWGQGTQVTVSS	low polyreactivity
QVQLVESGGGLVQAGGSLRLSCAASGSTFGWNAMGWYRQAPGKERELVAAISSSGGITYYAYSVKGRFTISRDKAKNTVSLQMNSLKPEDTAVYYCAAERDDDWGNYWGQGTQVTGSS	low polyreactivity
QVQLVESGGGLVQAGGSLRLSCAASGSTFGWYALGWYRQAPGKERELVAAIRSNGGSTYYADSVKGRFTLSRDNAKNTVYLQINSLKPEDTAVYYCAARGSPSKHHWYDYWGQGTQVTVSS	low polyreactivity
QVQLVESGGGLVQAGGSLRLSCAASGSTFGWYAMGWYRQAPGKERELVASITWDGGRTYYAHSVKGRFTISRDNAKNTVYLQMNSLKPEDTAVYYCAARGVSSPLNYWGQGSQVTVSS	low polyreactivity
QVQLVESGGGLVQAGGSLRLSCAASGSTFGWYTMGWYRQAPGKERELVAAINYSGGSTYYADSVKGRFTISRDNAKNTVYLQMNSLKPEDTAVYYCATDQSTYLYGYYYWGQGTQVTVSS	low polyreactivity
QVQLVESGGGLVQAGGSLRLSCAASGSTFGWYTMGWYRQAPGKERELVAAISSGGRTYYADSVKGRFTISRDNEKNTVYLQMNILKPEDTAVYYCAAGIYSSRHSPYGYWGQGTQVTVSS	high polyreactivity
QVQLVESGGGLVQAGGSLRLSCAASGSTFGYNAMGWYRQAPGKERELVAAITRSGGSTDYADSVKGRFTISRDNAKNTVYFQMNSLKPEDTAVYYCAAEGTGLQRYGYFGDDGYWGQGTQVTVSS	low polyreactivity
QVQLVESGGGLVQAGGSLRLSCAASGSTFGYNAMGWYRQAPGKERELVAAITWSGGSTYYADSVKGRFTISRDNAKNTVYLQMNSLKPEDTAAYYCAADDWYNSKWHYYYWGQGTQVTVSS	low polyreactivity
QVQLVESGGGLVQAGGSLRLSCAASGSTFGYYAMGWSRQAPGKERELVAAITGSGGSTYYADSVKGRFTISRDNAKNTVYLQMNSLKPEDTAVYYCATSYLLGRYYEYYYWGQGTQVTVSS	high polyreactivity
QVQLVESGGGLVQAGGSLRLSCAASGSTFGYYAMGWYRQAPGKERELVAAISASGSRTYYADSVKGRFTISRDNAKNTVYSQMNSQKPEDTAVYYCPALQYRRKIPTAYAGDYWGQGTQVTVSS	high polyreactivity
QVQLVESGGGLVQAGGSLRLSCAASGSTFGYYAMGWYRQAPGKERELVAAITASGGGTYYADSVKGRFTISRDNAKNTFYLQMNSLKPEDTEVYYCNRGYDYWGQGTHVTVSS	low polyreactivity
QVQLVESGGGLVQAGGSLRLSCAASGSTFGYYAMGWYRQAPGKERELVAAITGSGGRTYYADSVKGRFTISRDNAKNTVYLQMNSLKPEDTAVYYCAARTYRTEFAYGSWGQGTQVTVSS	low polyreactivity
QVQLVESGGGLVQAGGSLRLSCAASGSTFGYYAMGWYRQAPGKERELVAAITSGGTTNYADSVKGRFTISRDNAKNTVYLQMNSLKPEDTAVYYCNAVGTFVRYWTDGRDGVTYDYWGQGTQVTVSS	low polyreactivity
QVQLVESGGGLVQAGGSLRLSCAASGSTFGYYAMGWYRQAPGKERELVADISKSSGSTYYADSVKGRFTISRDNAKNTVYLQMNSLKPEDTAVYYCNRRYYYRTYDYWGQGTQVTVSS	high polyreactivity
QVQLVESGGGLVQAGGSLRLSCAASGSTFGYYAMGWYRQAPGKERELVAVITRGGSTYYADSVKGRFTISRDNAKNTVYLQMNSLKQEDTAVYYCNARVLAVHYGYWGQGTQVTVSS	high polyreactivity
QVQLVESGGGLVQAGGSLRLSCAASGSTFGYYDMGWYRQAPGKERELVATITKSGGTTRYADSVKGRFTISRDNAKNTVYLQMNSLKPEDTAVYYCAADGTWRLLDDYWGQGTQVTVSS	low polyreactivity
QVQLVESGGGLVQAGGSLRLSCAASGSTFGYYGMGWYRQAPGKERELVAAISASGGRTYYADSVKGRFTISRDNAKITVYLQMNSLKPEDTAVYYCAATVYAWRSTYGYWGQGTQVTVSS	high polyreactivity
QVQLVESGGGLVQAGGSLRLSCAASGSTFGYYTMGWSRQAPGKERELVAAITWSGGSTYYADSVKGRFTISRHNAKNTVYLQMNSLKAEDTAVYYCAADDYWTPFGYWGQGTQVTVSS	low polyreactivity
QVQLVESGGGLVQAGGSLRLSCAASGSTFGYYTMGWYRQAPGKERELVAAISRSGGRTYYADSVKGRFTISRDNAKKAVYLQMNSLKPEVTAVFYCNADGTRYAGDDYWGQGTQVTVSS	high polyreactivity

— the nanobody polyreactivity screen of Harvey et al. (2022)
